Legend:
MS2 coat protein [1] = assay: apparent KD of MS2 coat protein, switch ON state; designed switch direction (-1 OFF switch, 1 ON switch): -1; higher = weaker reporter binding; settings: FMN input: 0 or 200 uM; Eterna round: R93 (includes R88 designs)
Summary of the method: (§1)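 Designed RNA switches were transcribed on-chip from Illumina sequencing clusters. They were then titrated with SNAP-549-labelled MS2 coat protein (twofold steps, 0.7 or 1.5 nM to 3 µM; 0.8–1.5 h to 10–20 min per step) in 100 mM Tris-HCl pH 7.5, 80 mM KCl, 4 mM MgCl2, without or with constant ligand. Apparent KD is the per-design median of normalised cluster binding-curve fits.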

MS2 coat protein [2] = assay: apparent KD of MS2 coat protein, switch OFF state (with FMN for OFF switches, without FMN for ON switches); designed switch direction (-1 OFF switch, 1 ON switch): -1; higher = weaker reporter binding; settings: FMN input: 0 or 200 uM; Eterna round: R93 (includes R88 designs)
Summary of the method: as §1

| Sequence | apparent KD of MS2 coat protein (MS2 coat protein [1]) | apparent KD of MS2 coat protein (MS2 coat protein [2]) |
| --- | --- | --- |
| AGUCGGCGAGGAUAUACAUGAGGAUCACCCAUGUGAGAGAUAAAAGUGAGUUAGACAAGUAGAAGGCGCUGACA [JL Lego Mod 9] | 44.3 nM | 480 nM |
| AAGAGGCGAGGAUAUACAUGAGGAUCACCCAUGUAAUCCGGAUAAGGAAGCAUGUCGUGUAGAAGGUGCCAUGA [water's exclusion 3 last] | 19.2 nM | 20.2 nM |
| AACGAGUCAGGAUAUGCUAUAAAUUAAUAAAUAAAAUUAUAGCAGAAGGGACAUGAGGAUCACCCAUGUAAAUA [JR_Exc004_Sub201] | 45.7 nM | 42.2 nM |
| AACAUACAUGAGGAUCACCCAUGUCAGGAUAUGCCGGGUUAGAGCCAACUAAAAAAACGUAGAAGGGACAAAAA [Bilbo Confounded 6 - Jieux - Exclusion 1] | 62.7 nM | 55.7 nM |
| AAAAAGCUAGGAUAUACGAAAAAAAAGGGUAAAAUAAAUAAACAUGAGGAUCACCCAUGUAGAAGGAGCAAAAA [Mat - Exclusion 2 - Tesla mod - D37] | 42.6 nM | 38.3 nM |
| GUAAACCUAGGAUAUACAUGAGGAUCACCCAUGUAAAAUUUCAUAAAAAGAAAAUCAAGUAGAAGGAGGUAGAU [JR_Exc003_Sub1223] | 17.3 nM | 24.8 nM |
| GGAAAGCGAGGAUAUACAUGAGGAUCACCCAUGUAAACAAACAAACAAACAAACAAAUGUAGAAGGCGCAAAAC [Exclusion 3 Strange] | 49 nM | 50.6 nM |
| AAAAAGUGAGGAUAUACAUGAGGAUCACCCAUGUGAAAUCGGAAAAAAAAGGAAAAAAGUAGAAGGCACAAAAA [Mat - Mod of Eli] | 17.1 nM | 19.3 nM |
| AAAAAUGCAGGAUAUACGAACAUGUCGAAAGACGUGAAGGGACAUGAGGAUCACCCAUGUAGAAGGGUAAAGAA [Mat - Exclusion 2 - JL mod - D74] | 264 nM | 62.5 nM |
| AAAAAGUCAGGAUAUACGUACAUGUCGAAAGACGUGAAGGGACAUGAGGAUCACCCAUGUAGAAGGGACAAGAA [Mat - Exclusion 2 - JL mod - D78] | 99.6 nM | 91.8 nM |
| AAAACGUGAGGAUAUACUAAAAUAAAAAAUUAUGUUAAAAAACAUGAGGAUCACCCAUGUAGAAGGCACAAAAA [AJ 3] | 29.8 nM | 28.6 nM |
| AAAAAGUGAGGAUAUACAUGAGGAUCACCCAUGUAAAAGGUCGCGGGAGGGAGGGACGGUAGAAGGCGCAAAAA [Excls3-VII] | 15.7 nM | 22.2 nM |
| AAAAAGACAGGAUAUACAUGAAAAAAAAAAAAAAAAAAAAAACAUGAGGAUCACCCAUGUAGAAGGGUCAAAAA [Starry's Exclusion 2] | 71.6 nM | 54.6 nM |
| GAAAUGUCAGGAUAUGCGAAGGCGUCUGAUAGACGAGGAUAGCAGAAGGGACAUGAGGAUCACCCAUGUAAAAA [Opal 13] | 117 nM | 220 nM |
| AGUUGGCGAGGAUAUACAUGAGGAUCACCCAUGUAAAAUAAAUAAAAAAUAGGGAAAAGUAGAAGGCGCUGACA [73%, Moding Norbert Elias, 13] | 48.4 nM | 96.3 nM |
| AAGAAUGCAGGAUAUACAUGAGGAUCACCCAUGUAAAAGAAAGAAGGGAAAGAGAAAAGUAGAAGGGCAAAGAA [Bakare Tantamani] | 36 nM | 47.2 nM |
| AGUUGGCGAGGAUAUACAUGAGGAUCACCCAUGUGAGAGAAAAAAAAGAGAAAAAAAAGUAGAAGGCGCUGACA [Mat - Exclusion 3 - Lego mod - D42] | 42.6 nM | 130 nM |
| AAAAAUGGAGGAUAUACAUGAGGAUCACCCAUGUGUAACUAUACUAAACACAAAAAAAGUAGAAGGCCAAAAAA [Gilly Gone Silly 8 - Jieux - Exclusion 3] | 32.7 nM | 50 nM |
| AAAGUGUCAGGAUAUGCUGCUCGUCACGAAAGUGAUGAGUAGCAGAAGGGACAUGAGGAUCACCCAUGUAAAGA [Exclusion 4.1d (Exclusion4-cac2 - mutated U at 5 and G at 4)] | 110 nM | 205 nM |
| GGUUGGCGAGGAUAUACAUGAGGAUCACCCAUGUGAGAGAAAAAAGUGAGAAAGAUAAGUAGAAGGCGCUGACG [salish99-ex3-39] | 80.3 nM | 169 nM |

| Sequence | apparent KD of MS2 coat protein (MS2 coat protein [1]) | apparent KD of MS2 coat protein (MS2 coat protein [2]) |
| --- | --- | --- |
| AAAAUGUCAGGAUAUGCGAAGGCGUCUGAUAGAAGAGGAUAGCAGAAGGGACAUGAGGAUCACCCAUGUGGAAA [Opal 25] | 72.3 nM | 124 nM |
| GAAAAGUGAGGAUAUGUCAAAAGUCACAAAAGUGACAAAAGACAGAAGGCACAUGAGGAUCACCCAUGUGGGAA [Mat - Exaclusion 4 - Eli mod - D50] | 58.5 nM | 211 nM |
| AAUAAGAGAGGAUAUACUAAAGAAAUGAAAAGAAAUAAAGAACAUGAGGAUCACCCAUGUAGAAGGCUCAAUAA [Bebnum] | 24.4 nM | 24.6 nM |
| AUCUUGUCAGGAUAUCGUACAAUAUGGAAAACAUAGAGGUACGAGAAGGGACAUGAGGAUCACCCAUGUAAAAC [May 98] | 59.5 nM | 73.7 nM |
| GUGUACAGAGGAUAUACAUGAGCUAGGAAACUAGCAAGAUCACAUGAGGAUCACCCAUGUAGAAGGCUGUACAC [Ex2: 734] | 70 nM | 16.3 nM |
| AGGAAACAUGAGGAUCACCCAUGUGAGGAUAUGAACGAAAAUAAAUAAAAAUAAAAGUUCAGAAGGCAUAAAAA [66%, Wbt, 4] | 30 nM | 35.6 nM |
| CUUAUGUGAGGAUAUCAGUAGUAAAAAAAAAAAAUUACUACUGAGAAGGCACAUGAGGAUCACCCAUGUGCCUU [EX4 323: Super Stable 23] | 14.4 nM | 14.2 nM |
| AUCUAGUCAGGAUAUGACUACAUAAAAAAAAAAAAAUGUAGUCAGAAGGGACAUGAGGAUCACCCAUGUACUAA [HSL_Exclusion 4 64% 1] | 37.3 nM | 24.8 nM |
| AAUAAACAUGAGGAUCACCCAUGUGAGGAUAUGGUAUAAUUAGGACAGUAAUGAUAAACCAGAAGGCACAAAUA [JR_Exc001_Sub1103] | 35.6 nM | 42.6 nM |
| GAUAAACAUGAGGAUCACCCAUGUCAGGAUAUGCACUAACUAACUAACUAACUAGCUAGCAGAAGGGACACUAC [Amethyst 86] | 24.9 nM | 33.4 nM |
| CUCAUGUGAGGAUAUGUACAGAAAAAAAUGGGUGAAACUGUACAGAAGGCACAUGAGGAUCACCCAUGUGAAAA [EX4 378: S S Pseudoknot 3] | 26.1 nM | 21.1 nM |
| AAGUAACAUGAGGAUCACCCAUGUGAGGAUAUGAUUUAAGUUGUAAAAGUAAUAAAGGUCAGAAGGUAUGUGAA [Exclusion 1.2] | 30.9 nM | 34.7 nM |
| AGAAAUACAGGAUAUACAUGGGAAAAAAAAAAAAAAAUUCUACAUGAGGAUCACCCAUGUAGAAGGGUAUUUCA [Ex2 Design 170: Random 1] | 48.2 nM | 32 nM |
| AAAAAGUUAGGAUAUACAUGAGGAUCACCCAUGUGCACGUAUGGAGAAUAUGGUGGUGGUAGAAGGGACAAAAA [EX2 Malc#19] | 43.2 nM | 65.5 nM |
| AAAUUGUCAGGAUAUCGUAUAACUCUAAAAUAGAGGAGAUACGAGAAGGGACAUGAGGAUCACCCAUGUAAAAC [May 87] | 61.4 nM | 57.2 nM |
| AAAAAACAUGAGGAUCACCCAUGUGAGGAUAUGAUGCGAAUAAAGAAAGAAUAAAGCAUCAGAAGGCACACCAA [Mat - Exclusion 1 - Eli mod - D61] | 27.9 nM | 48.7 nM |
| CACGUACAUGAGGAUCACCCAUGUUAGGAUAUGCCGGGUAAGAGAAAACAAAAAAUCAGCAGAAGGGACGAAAC [Bilbo Confounded 17 - Jieux - Exclusion 1] | 34.1 nM | 31.8 nM |
| AUAGGCCUAGGAUAUACAUGAGGAUCACCCAUGUUAAUACUUCAAUCAAGAUAAAAGUGUAGAAGGAGGAAUAA [JR_Exc003_Sub306] | 26.7 nM | 30.9 nM |
| AUCAUGUUAGGAUAUUUAAGAAAAGAAAAGAAAGAAAAGAAAAAGAAGGAACAUGAGGAUCACCCAUGUAAGAA [EteRNA is fun!] | 27.5 nM | 22 nM |

Source: the supplement of paper PMC9170038
